Patent publication US20220281931A1 (published 2022)

B3: SIAH1^SBD (tag-cleaved) (enzyme, human, UniProt Q8IUQ4 90-282, looked up)
chain: VANSVLFPCKYASSGCEITLPHTEKADHEELCEFRPYSCPCPGASCKWQGSLDAVMPHLMHQHKSITTLQGEDIVFLATDINLPGAVDWVMMQSCFGFHFMLVLEKQEKYDGHQQFFAIVQLIGTRKQAENFAYRLELNGHRRRLTWEATPRSIHEGIATAIMNSDCLVFDTSIAQLFAENGNLGINVTISMC
notes: range 90-282; also called recombinant SIAH1^SBD

Columns and labels:
[1] = biological target: T1, eGFPBCL6^1-275 (human, UniProt P41182 1-275); test: immunofluorescence colocalization in HEK293T cells, 1 µM BI-3802
T1 construct: Expressed in HEK293T Cas9 cells; also called eGFPBCL6^275; minimal degradable construct; not shown: eGFP

[2] = biological target: T2, eGFPBCL6^FL 249-251 VSP>GSA (human, UniProt P41182 1-706); test: co-immunoprecipitation (GFP-trap) from HEK293T cells, BI-3802 or DMSO
T2 construct: Expressed in HEK293T Cas9 cells; also called BCL6 V×P motif mutant; not shown: eGFP
Description: (§1) The cells were harvested and lysed in RIPA lysis buffer (ThermoFisher Scientific, #89900) infused with protease inhibitor (ThermoFisher Scientific, Halt™ Protease Inhibitor Cocktail #78438) for 30 min at 4° C. […] Lysates were cleared by centrifugation (17,000 g, 20 min, 4° C.). 20 μL of pre-cleaned GFP-trap magnetic agarose beads (Chromotek, gmta-20) was added to the lysates. The beads-lysate mix was incubated at 4° C. for 30 min. Proteins were eluted in 2×sample buffer at 98° C. Eluates and whole-cell lysates were run on a polyacrylamide gel, transferred to a nitrocellulose membrane and immunoblotted for eGFP and V5.

[3] = biological target: T3, eGFPBCL6^1-250 (human, UniProt P41182 1-250); test: as above
T3 construct: Expressed in HEK293T Cas9 cells; also called eGFPBCL6^250; non-degradable eGFPBCL6^1-250 construct; not shown: eGFP
Description: as §1

[4] = biological target: T4, BodipyFL-labeled BCL6^5-360 (human, UniProt P41182 5-360, BodipyFL label (site not stated)); test: TR-FRET, apparent KD; BodipyFL-BCL6^5-360 titrated to biotinylated SIAH1^SBD in the presence of 2 µM BI-3802
T4 construct: also called BodipyBCL6^5-360; BodipyFL-BCL6^5-360
Description: Titrations of BodipyFL-BCL6⁵⁻³⁶⁰ were carried out by mixing 400 nM biotinylated Strep II Avi-tagged SIAH1^SBD, 2 μM compounds or equivalent volume of DMSO, and 4 nM terbium-coupled streptavidin in the same assay buffer. After dispensing the assay mixture, increasing concentration of BodipyFL-BCL6⁵⁻³⁶⁰ was added to the SIAH1 mixture in a […] (7.5 μL each, total 15 μL assay volume). The 520/490 nm ratios were measured in as described above and plotted to calculate the KD^APP values using dose-response analysis standard four parameter log-logistic curves using the dr4pl R package.

[5] = biological target: T5, BCL6^5-360 (ITC) (human, UniProt P41182 5-360); test: isothermal titration calorimetry, SIAH1^SBD injected into BCL6^5-360
T5 construct: also called BCL6^5-360 protein
Description: (§2) All calorimetric experiments were carried out using an Affinity ITC from TA Instruments (New Castle, Del.) equipped with auto sampler in a buffer containing 20 mM HEPES, pH 7.5, 150 mM NaCl, and 0.5 mM TCEP at 25° C. For the BCL6-SIAH1 interaction, 25 μM BCL6⁵⁻³⁶⁰ protein solution in the calorimetric cell was titrated by injecting 2 μL of 250 μM SIAH1^SBD protein solution in 200 sec intervals with stirring speed at 125 rpm. […] Resulting isotherm was fitted with a single site model to yield thermodynamic parameters of DH, DS, stoichiometry, and Kd using NanoAnalyze software (TA instruments).

[6] = biological target: B3; test: isothermal titration calorimetry, peptide injected into SIAH1^SBD
Description: as §2

B1: V5SIAH1^C44S (enzyme, UniProt Q8IUQ4 1-282, looked up)
chain: MSRQTATALPTGTSKCPPSQRVPALTGTTASNNDLASLFECPVSFDYVLPPILQCQSGHLVCSNCRPKLTCCPTCRGPLGSIRNLAMEKVANSVLFPCKYASSGCEITLPHTEKADHEELCEFRPYSCPCPGASCKWQGSLDAVMPHLMHQHKSITTLQGEDIVFLATDINLPGAVDWVMMQSCFGFHFMLVLEKQEKYDGHQQFFAIVQLIGTRKQAENFAYRLELNGHRRRLTWEATPRSIHEGIATAIMNSDCLVFDTSIAQLFAENGNLGINVTISMC
notes: Expressed from pLEX_307 in HEK293T Cas9 cells; also called V5SIAH1^44C>S; V5SIAH1^44>S; not shown: V5 tag
B1: binds [1]; no binding [2]; no binding [3].

B2: biotinylated Strep II Avi-tagged SIAH1^SBD (enzyme, human, UniProt Q8IUQ4 90-282, looked up)
chain: VANSVLFPCKYASSGCEITLPHTEKADHEELCEFRPYSCPCPGASCKWQGSLDAVMPHLMHQHKSITTLQGEDIVFLATDINLPGAVDWVMMQSCFGFHFMLVLEKQEKYDGHQQFFAIVQLIGTRKQAENFAYRLELNGHRRRLTWEATPRSIHEGIATAIMNSDCLVFDTSIAQLFAENGNLGINVTISMC
modifications: biotinylated (Avi tag)
notes: range 90-282; Captured through terbium-coupled streptavidin in TR-FRET; also called BiotinSIAH1^SBD; not shown: N-terminal Strep II-Avi tag
For B2, the Kd [4] was 200 nM.

B3: binds [5].

B4: BCL6^241-260 peptide (peptide)
peptide: EYSRPTLEVSPNVCHSNIYS
notes: also called V×P-containing polypeptide
B4: binds [6].
